Experimental data: article PMC11489326, “Characterization of lignin-degrading enzyme PmdC, which catalyzes a key step in the synthesis of polymer precursor 2-pyrone-4,6-dicarboxylic acid” (The Journal of Biological Chemistry, 2024)

Target: CHMS dehydrogenase PmdC from Comamonas testosteroni (Comamonas testosteroni)
Experiment: SEC; purified PmdC (wild type and mutants) in solution; conditions of the run not told in the text shown (Figs. S5, S12)

stoichiometry N: 2
Substance: CHMS dehydrogenase PmdC from Comamonas testosteroni (enzyme)
